Source: publication PMC4852461, “A closed conformation of the Caenorhabditis elegans separase–securin complex” (Open Biology, 2016)

Target: T1, strep II-tagged full-length C. elegans separase (C. elegans, UniProt G5ED39 1-1262)
T1 construct: separase, Caenorhabditis elegans, full length (residues up to 1262; molecular weight 144.2 kDa); Vector pFBDM-strepII: double strepII tag with a PreScission cleavage site; also called strep II-tagged separase; source: Sf9 insect cells, co-expressed with securin, purified as complex (StrepTactin, SEC)
T1 sequence (looked up): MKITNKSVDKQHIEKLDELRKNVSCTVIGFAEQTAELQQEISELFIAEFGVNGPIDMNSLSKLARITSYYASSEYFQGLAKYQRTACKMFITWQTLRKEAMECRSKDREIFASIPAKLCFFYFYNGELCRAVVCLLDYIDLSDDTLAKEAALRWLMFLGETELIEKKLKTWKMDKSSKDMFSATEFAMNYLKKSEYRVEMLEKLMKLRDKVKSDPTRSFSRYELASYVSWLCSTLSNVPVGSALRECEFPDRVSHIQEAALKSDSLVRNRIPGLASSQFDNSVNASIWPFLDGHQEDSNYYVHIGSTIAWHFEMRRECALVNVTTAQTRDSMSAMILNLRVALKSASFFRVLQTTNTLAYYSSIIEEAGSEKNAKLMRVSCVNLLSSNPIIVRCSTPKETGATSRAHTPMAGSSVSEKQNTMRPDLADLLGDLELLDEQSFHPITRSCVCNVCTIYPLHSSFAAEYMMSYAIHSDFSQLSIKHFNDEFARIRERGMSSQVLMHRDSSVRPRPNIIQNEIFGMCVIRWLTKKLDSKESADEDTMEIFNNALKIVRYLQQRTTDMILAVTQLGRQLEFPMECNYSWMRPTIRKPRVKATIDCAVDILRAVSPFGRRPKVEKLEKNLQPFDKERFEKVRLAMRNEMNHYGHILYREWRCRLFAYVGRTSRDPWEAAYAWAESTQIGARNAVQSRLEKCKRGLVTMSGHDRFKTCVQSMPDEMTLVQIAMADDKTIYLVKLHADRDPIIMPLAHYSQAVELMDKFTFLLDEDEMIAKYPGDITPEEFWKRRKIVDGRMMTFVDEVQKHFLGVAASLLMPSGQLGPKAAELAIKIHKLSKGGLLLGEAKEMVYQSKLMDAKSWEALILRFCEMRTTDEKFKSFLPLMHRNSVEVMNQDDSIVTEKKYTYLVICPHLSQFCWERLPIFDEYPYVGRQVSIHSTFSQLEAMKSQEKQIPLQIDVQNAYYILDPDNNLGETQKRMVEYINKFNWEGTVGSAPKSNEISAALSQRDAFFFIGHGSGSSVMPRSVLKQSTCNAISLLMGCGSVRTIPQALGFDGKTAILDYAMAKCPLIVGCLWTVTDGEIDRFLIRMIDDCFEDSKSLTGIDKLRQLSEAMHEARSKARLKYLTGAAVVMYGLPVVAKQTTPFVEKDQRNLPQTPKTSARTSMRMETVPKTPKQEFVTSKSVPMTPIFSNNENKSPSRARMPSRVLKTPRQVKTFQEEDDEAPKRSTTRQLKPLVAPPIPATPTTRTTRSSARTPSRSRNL
Assay: SEC-MALS; 1 mg/ml purified complex on Superose 6 10/300; 50 mM sodium phosphate, 100 mM NaCl, 20 mM NaF, 10% glycerol, 5 mM 2-mercaptoethanol, 3 mM sodium azide, pH 8.0
Details: both partners purified

stoichiometry N: 1
B1: full-length C. elegans securin (co-expressed with StrepII-tagged separase) (natural protein, UniProt Q18235 1-244, looked up)
chain: MEDLNFEERGSTQIPASLQQHFSAKLGRQNELEKTPSRGGLGLVVNSSKTPGGKSLQSLASACKVPPSTKKNTIPIAFECYEDETDDQIADVATIKKTEKHPCSPIDTANRCETFDSLAADIEDDMLNLEDQDVVLSEDRPYGDVIDPAESEAEALAELGVEEWDSYPPIDPASRIGDDFNYVLRTEDFAEEGDVKLEETRHRTVIADIDEVKMSKAERNELFSMLADDLDSYDLLAEEANLPL
notes: it may be the same construct as m2; also called securin FL; source: Sf9 insect cells, co-expressed with StrepII-separase; in soluble lysate (pull-down) and purified as complex (StrepTactin, SEC)
